B1: Bile acid receptor (Homo sapiens), Q96RI1 (parent)
chain: MVMQFQGLENPIQISPHCSCTPSGFFMEMMSMKPAKGVLTEQVAGPLGQNLEVEPYSQYSNVQFPQVQPQISSSSYYSNLGFYPQQPEEWYSPGIYELRRMPAETLYQGETEVAEMPVTKKPRMGASAGRIKGDELCVVCGDRASGYHYNALTCEGCKGFFRRSITKNAVYKCKNGGNCVMDMYMRRKCQECRLRKCKEMGMLAECMYTGLLTEIQCKSKRLRKNVKQHADQTVNEDSEGRDLRQVTSTTKSCREKTELTPDQQTLLHFIMDSYNKQRMPQEITNKILKEEFSAEENFLILTEMATNHVQVLVEFTKKLPGFQTLDHEDQIALLKGSAVEAMFLRSAEIFNKKLPSGHSDLLEERIRNSGISDEYITPMFSFYKSIGELKMTQEEYALLTAIVILSPDRQYIKDREAVEKLQEPLLDVLQKLCKIHQPENPQHFACLLGRLTELRTFNHHHAEMLMSWRVNDHKFTPLLCEIWDVQ
partner: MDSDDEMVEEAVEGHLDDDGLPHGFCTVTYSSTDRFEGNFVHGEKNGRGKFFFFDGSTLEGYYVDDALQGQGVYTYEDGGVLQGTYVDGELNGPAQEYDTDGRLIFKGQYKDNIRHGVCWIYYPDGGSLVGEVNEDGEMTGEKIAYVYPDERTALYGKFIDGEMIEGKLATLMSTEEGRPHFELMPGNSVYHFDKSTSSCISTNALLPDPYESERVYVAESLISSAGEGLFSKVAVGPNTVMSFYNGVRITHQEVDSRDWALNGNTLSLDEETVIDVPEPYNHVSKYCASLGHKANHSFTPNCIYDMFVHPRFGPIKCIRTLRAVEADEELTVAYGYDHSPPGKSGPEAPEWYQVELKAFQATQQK

Variants of: B1
Details: with setd7_human SETD7, Q8WTS6

Row | effect of a mutation on the interaction | Variant
1 | decreasing interaction | MVMQFQGLENPIQISPHCSCTPSGFFMEMMSMKPAKGVLTEQVAGPLGQNLEVEPYSQYSNVQFPQVQPQISSSSYYSNLGFYPQQPEEWYSPGIYELRRMPAETLYQGETEVAEMPVTKKPRMGASAGRIKGDELCVVCGDRASGYHYNALTCEGCKGFFRRSITKNAVYKCKNGGNCVMDMYMRRKCQECRLRKCKEMGMLAECMYTGLLTEIQCKSRRLRKNVKQHADQTVNEDSEGRDLRQVTSTTKSCREKTELTPDQQTLLHFIMDSYNKQRMPQEITNKILKEEFSAEENFLILTEMATNHVQVLVEFTKKLPGFQTLDHEDQIALLKGSAVEAMFLRSAEIFNKKLPSGHSDLLEERIRNSGISDEYITPMFSFYKSIGELKMTQEEYALLTAIVILSPDRQYIKDREAVEKLQEPLLDVLQKLCKIHQPENPQHFACLLGRLTELRTFNHHHAEMLMSWRVNDHKFTPLLCEIWDVQ [K220R]
